Test results: patent publication US20210179707A1 (published 2021)
Changes are numbered by the printed parent chain. Values belong to the binder of their own block, whether it stands above or below them.

What was measured:
hPAR3 (Biotin) [1] = target: T1, hPAR3 (Biotin) (human, biotin on the C-terminal lysine (GGGGSK-biotin, SKB)); test: ELISA, hybridoma supernatant
T1 construct: also called hPAR3 peptide
T1 peptide: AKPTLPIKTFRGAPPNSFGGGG

hPAR1 (Biotin) [2] = target: T2, hPAR1 (Biotin) (human, biotin on the C-terminal lysine (GGGGSK-biotin, SKB)); test: ELISA, hybridoma supernatant
T2 construct: also called hPAR1 peptide
T2 peptide: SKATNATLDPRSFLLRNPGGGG

[3] = target: T3, human PAR4 on isolated human platelets (human, UniProt Q96RI0 18-385); test: flow cytometry on isolated human platelets
T3 construct: Native receptor of donor platelets (genotypes AA, AT, TT at residue 120); also called hPAR4
T3 sequence: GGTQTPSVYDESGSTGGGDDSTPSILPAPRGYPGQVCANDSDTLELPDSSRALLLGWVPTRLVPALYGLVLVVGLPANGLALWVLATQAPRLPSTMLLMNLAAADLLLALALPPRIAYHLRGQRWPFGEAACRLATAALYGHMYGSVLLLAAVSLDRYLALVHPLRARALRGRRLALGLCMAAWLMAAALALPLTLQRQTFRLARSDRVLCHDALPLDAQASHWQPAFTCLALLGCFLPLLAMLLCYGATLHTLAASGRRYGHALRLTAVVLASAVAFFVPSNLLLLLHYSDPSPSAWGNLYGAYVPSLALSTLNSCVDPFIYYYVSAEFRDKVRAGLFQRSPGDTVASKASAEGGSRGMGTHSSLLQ

hPAR4 (Biotin) [4] = target: T4, hPAR4 (Biotin) (human, biotin on the C-terminal lysine (GGGGSK-biotin, SKB)); test: SPR (Biacore T200), biotinylated hPAR4 peptide on SA chip, mAb as analyte
T4 construct: also called hPAR4 biotinylated peptide; Human PAR4 peptide (biotinylated)
T4 peptide: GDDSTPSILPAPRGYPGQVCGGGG

hPAR3 (Biotin) [5] = target: T1, hPAR3 (Biotin); test: ELISA, biotinylated peptides on streptavidin plate
Experimental: (§1) Biotinylated peptides (hPAR1-4) were diluted in Wash buffer and allowed to bind to the blocked Streptavidin coated wells at 10 ug/ml (100 ul per well) for 1 hour at room temperature with gentle mixing. Wells were washed 3 times as above and purified anti-hPAR4 mAbs prepared at 10 ug/ml in Wash buffer were allowed to bind (100 ul/well) for 1 hour at room temperature with gentle mixing. The plate was washed 3 times as above and anti-mouse Fc conjugated to Alkaline phosphatase (AP) at 0.3 ug/ml (100 ul) was added to the wells for 1 hour as above. Wells were washed 3 times as above and developed with Alkaline Phosphatase substrate as described for the screening supernatant ELISA.
(§2) To further characterise the purified anti-hPAR4 mAb's the specificity of the mAbs to hPAR1, hPAR2, hPAR3 and hPAR4 biotinylated peptides was performed.

hPAR2 (Biotin) = target: T5, hPAR2 (Biotin) (human, biotin on the C-terminal lysine (GGGGSK-biotin, SKB)); test: ELISA, biotinylated peptides on streptavidin plate
T5 construct: also called hPAR2 peptide
T5 peptide: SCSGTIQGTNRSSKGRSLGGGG
Experimental: as §1, §2

hPAR1 (Biotin) [6] = target: T2, hPAR1 (Biotin); test: ELISA, biotinylated peptides on streptavidin plate
Experimental: as §1, §2

hPAR4 (Biotin) [7] = target: T4, hPAR4 (Biotin); test: SPR (Bio-Rad ProteOn XPR36), biotinylated peptide captured, antibody as analyte

Binding to PAR3 ratio (hPAR3 (Biotin) [1]): 0.9 ratio
Binding to PAR1 ratio (hPAR1 (Biotin) [2]): 1 ratio
Kd (hPAR4 (Biotin) [4]): 610 pM
koff (hPAR4 (Biotin) [4]): 0.00111 s⁻¹
kon (hPAR4 (Biotin) [4]): 1.84e+06 M⁻¹ s⁻¹
binding result (hPAR3 (Biotin) [5]): no binding (tested: 10 ug/ml)
binding result (hPAR2 (Biotin)): no binding (tested: 10 ug/ml)
binding result (hPAR1 (Biotin) [6]): no binding (tested: 10 ug/ml)
B3: 5H.RF2 (antibody, IgG2a, V domains shown)
VH: QVQLQQWGAGLLKPSETLALTCAVYGGSLSDYYWSWIRQPPGKGLEWIGEINHSGTTNYNPSLKSRVTISVDTSKKQFSLKLSSVTAADTAVYYCAIEYSNSRGYYYGMDVWGQGTTVTVSS
VL: DIQMTQSPSSLSASAGDRITITCRASQTISNYLNWYQQKPGKAPKLLIYAASSLQSGVPSRFSGSGSGTDFTLTISSLQPEDFASYYCRQNYNTPLTFGGGTKVEIK
notes: Human variable regions on mouse constant regions; isotype IgG2a/κ; also called 5H.RF2.A5b.D3.C2; MoB5H F2

Binding to PAR3 ratio (hPAR3 (Biotin) [1]): 1 ratio
Binding to PAR1 ratio (hPAR1 (Biotin) [2]): 1 ratio
Kd (hPAR4 (Biotin) [4]): 360 pM
koff (hPAR4 (Biotin) [4]): 0.000667 s⁻¹
kon (hPAR4 (Biotin) [4]): 1.85e+06 M⁻¹ s⁻¹
binding result (hPAR3 (Biotin) [5]): no binding (tested: 10 ug/ml)
binding result (hPAR2 (Biotin)): no binding (tested: 10 ug/ml)
binding result (hPAR1 (Biotin) [6]): no binding (tested: 10 ug/ml)
B4: 5I.RG1 (antibody, IgG3, V domains shown)
VH: QVQLQQWGAGLLKPSETLSLACAISSGSFSTYFWRWIRQPPGKGLEWIGEIIHTGSTTYNPSLKSRVTISVDTSKNQLSLKLSSVTAADTAVYYCAFEYSSSGGYYYGMDVWGQGTTVTVSS
VL: DIQMTQSPSSLSASVGDRVTITCRASQSISSYLNWYQQIPGKAPNLLIYAASSLRSGVPSRFSGSGSGTDFTLTISSLQPEDFATYYCQQTYSTPLTFGGGTKVEIK
notes: Human variable regions on mouse constant regions; isotype IgG3/κ; also called 5I.RG1.D6.C1b; 51.RG1

Binding to PAR3 ratio (hPAR3 (Biotin) [1]): 0.9 ratio
Binding to PAR1 ratio (hPAR1 (Biotin) [2]): 1 ratio
B5: 5H.RD2 (antibody, IgG1, V domains shown)
VH: EVQLVESGGDLVKPGGSLRLSCSASGFTFFNTWMNWVRQAPGKGLEWVGRVKSKNDGGTKDYAAPVTGRFTISRDDSKDTLYLQMNSLKTEDTAVYYCTTDPHYDFWSAYWGQGTLVTVSS
VL: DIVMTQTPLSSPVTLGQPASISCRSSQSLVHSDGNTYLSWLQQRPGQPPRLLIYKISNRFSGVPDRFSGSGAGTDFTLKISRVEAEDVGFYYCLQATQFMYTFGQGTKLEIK
notes: Human variable regions on mouse constant regions; isotype IgG1/κ; also called 5H.RD2.A7b; MoB5H-RD2.A7b

Binding to PAR3 ratio (hPAR3 (Biotin) [1]): 0.9 ratio
Binding to PAR1 ratio (hPAR1 (Biotin) [2]): 1 ratio
B11: 5H.RH4 (antibody, IgG2b, V domains shown)
VH: QVQLQQWGAGLLKPSETLSLTCAVYGGSFSNYYWSWIHQPPGKGLEWIGEINHSGSTNYNPSLKSRVTISVDTSKKQFSLNLSSVTAADTAVYYCKVEHSSSSGHYYYGMDVWGQGTTVTVSS
VL: B4 VL with S28T, S31Y, I39K, N45K, S53R, R55Q, A84T, T91S, E105G
notes: Human variable regions on mouse constant regions; isotype IgG2b/κ; Tested as parent hybridoma supernatant (MoB5H H4); also called 5H RH4.C8b.A3.A6; MoB5H H4

The remaining lines, values behind:

B1: 5F.RE6 (antibody, IgG2a, V domains shown)
VH: QVQLAESGGGVVQPGRSLRVSCAASGFTFSSYGMHWVRQAPGKGLEWVAVIWYDGTKKYYADSLKGRFTISRDNSKYTLYLQMNSLRADDTALYFCARKGARGITGLDYWGQGTLVTVSS
VL: B3 VL with T28S
notes: Human variable regions on mouse constant regions; isotype IgG2a/κ; Tested as parent hybridoma supernatant (MoB5F E6); also called 5F RE6.D3.E7; MoB5F E6
Binding to PAR3 ratio (hPAR3 (Biotin) [1]): 0.8 ratio
Binding to PAR1 ratio (hPAR1 (Biotin) [2]): 1.1 ratio

B2: 5H.RA3 (antibody, IgG2a, V domains shown)
VH: B1 VH with A5V, H35L
VL: not shown
notes: Human variable regions on mouse constant regions; isotype IgG2a/κ; also called 5H.RA3.D3b.A2b; MoB5H A3
Binding to human platelets, FACS GMFI at 10 ug/ml (over isotype control) [3]: 100 GMFI

B6: 5G.RG1 (antibody, IgG1, V domains shown)
VH: QVQLVESGGGVVQPGRSLRLSCVASGFTLSSYGMHWVRQAPGKGLEWVAVIWYDGSSKYYTDSVKGRFDISRDNSKNTLYLQMNILRAEDTAVYYCARETILIGGVPFDYWGQGTLVTVSS
VL: EIVLTQSPGTLSLSPGERATLSCGASQSIRSNYLAWYQQKPGQAPRLLIYGASSRATGTPDRFSGSGSGTDFTLTITRLEPEDFALYYCQQYGRSYTFGQGTKLEIK
notes: Human variable regions on mouse constant regions; isotype IgG1/κ; Tested as parent hybridoma supernatant (MoB5G G1); also called 5G RG1.D3.C2b; MoB5G G1
Binding to PAR3 ratio (hPAR3 (Biotin) [1]): 0.8 ratio
Binding to PAR1 ratio (hPAR1 (Biotin) [2]): 1.1 ratio

B7: 5G.RA1 (antibody, IgG2a, V domains shown)
VH: B6 VH with V23A, L29F, S57N, T61A, D69T, I85S, I101A, I103V, G104R
VL: not shown
notes: Human variable regions on mouse constant regions; isotype IgG2a/κ; also called 5G.RA1.E10.G3; MoB5G A1
Binding to human platelets, FACS GMFI at 10 ug/ml (over isotype control) [3]: 25 GMFI

B8: 5F.RF3 (antibody, IgG2b, V domains shown)
VH: QVQLVQSGAEVKKPGASVKVSCKTSAYTFTNYGISWVRQAPGQGLEWMGWISPYNGNTNYAQKLQGRVTMTTDTSTRTAYMELRSLRSDDTAVYYCAREYNRSSRGRYYYYGMDVWGQGTTVTVSS
VL: EIVLTQSPGTLSLSPGERATLSCRASQSVSSNYLAWYQKKPGQAPRLLISGASSRATGIPDRFSGSGSGTDFTLTISRLEPEDFAVYYCQQYGSSPWTFGQGTKVEIK
notes: Human variable regions on mouse constant regions; isotype IgG2b/κ; also called 5F.RF3.A7b.C9; MoB5F-RF3.A7b.C9
Binding to human platelets, FACS GMFI at 10 ug/ml (over isotype control) [3]: 53 GMFI

B9: 5D.RH4 (antibody, IgG2a, V domains shown)
VH: QIQLVESGGGVVQPGRSLRLSCAASGFTFSSDGMHWVRQAPGKGLEWVAVIWFDGRNKYYLDSVKGRFTISRDNSKNTLYLQMNSLRAEDTAVYYCARESSISTRPPFDYWGQGTLVTVSS
VL: not shown
notes: Human variable regions on mouse constant regions; isotype IgG2a/κ; also called 5D.RH4.G7.E6.C7b.G7
Binding to human platelets, FACS GMFI at 10 ug/ml (over isotype control) [3]: 33 GMFI

B10: 5A.RC3 (antibody, IgG2a, V domains shown)
VH: QVQLVESGGGVVQPGRSLRLSCAASGFTLSNYGMHWVRQAPGKGLEWVSVIWYDGSNKHYADSVKGRFTISRDNSKNTLYLQMNSLRAEDTAVYYCARESIVEVLPPFDYWGQGTLVTVSS
VL: KIVLTQSPGTLSLSPGERVTLSCRASQRVRNNYLAWFQQKPGQAPRLFIYGASSRATGIPDRFSGSGSGTDFIFTISRLEPEDFAVYYCQQYGNSYTFGQGTKLEIK
notes: Human variable regions on mouse constant regions (HumAb mice); isotype IgG2a/κ; also called 5A.RC3.F10b.H4b; MoB5A-RC3.F10b.H4b
Kd (hPAR4 (Biotin) [7]): ~400 pM
Kd (hPAR4 (Biotin) [4]): 320 pM
koff (hPAR4 (Biotin) [4]): 0.000417 s⁻¹
kon (hPAR4 (Biotin) [4]): 1.32e+06 M⁻¹ s⁻¹
Binding to human platelets, FACS GMFI at 10 ug/ml (over isotype control) [3]: 39 GMFI
binding result (hPAR3 (Biotin) [5]): no binding (tested: 10 ug/ml)
binding result (hPAR2 (Biotin)): no binding (tested: 10 ug/ml)
binding result (hPAR1 (Biotin) [6]): no binding (tested: 10 ug/ml)
